Some results are limits rather than exact numbers.

This test has as its target insulin-like growth factor 2 receptor (IGF2R), native full-length, from bovine liver (bovine) (UniProt P08169). As to the kind of experiment: pull-down.
UniProt P08169, sequence (P08169 45-2499): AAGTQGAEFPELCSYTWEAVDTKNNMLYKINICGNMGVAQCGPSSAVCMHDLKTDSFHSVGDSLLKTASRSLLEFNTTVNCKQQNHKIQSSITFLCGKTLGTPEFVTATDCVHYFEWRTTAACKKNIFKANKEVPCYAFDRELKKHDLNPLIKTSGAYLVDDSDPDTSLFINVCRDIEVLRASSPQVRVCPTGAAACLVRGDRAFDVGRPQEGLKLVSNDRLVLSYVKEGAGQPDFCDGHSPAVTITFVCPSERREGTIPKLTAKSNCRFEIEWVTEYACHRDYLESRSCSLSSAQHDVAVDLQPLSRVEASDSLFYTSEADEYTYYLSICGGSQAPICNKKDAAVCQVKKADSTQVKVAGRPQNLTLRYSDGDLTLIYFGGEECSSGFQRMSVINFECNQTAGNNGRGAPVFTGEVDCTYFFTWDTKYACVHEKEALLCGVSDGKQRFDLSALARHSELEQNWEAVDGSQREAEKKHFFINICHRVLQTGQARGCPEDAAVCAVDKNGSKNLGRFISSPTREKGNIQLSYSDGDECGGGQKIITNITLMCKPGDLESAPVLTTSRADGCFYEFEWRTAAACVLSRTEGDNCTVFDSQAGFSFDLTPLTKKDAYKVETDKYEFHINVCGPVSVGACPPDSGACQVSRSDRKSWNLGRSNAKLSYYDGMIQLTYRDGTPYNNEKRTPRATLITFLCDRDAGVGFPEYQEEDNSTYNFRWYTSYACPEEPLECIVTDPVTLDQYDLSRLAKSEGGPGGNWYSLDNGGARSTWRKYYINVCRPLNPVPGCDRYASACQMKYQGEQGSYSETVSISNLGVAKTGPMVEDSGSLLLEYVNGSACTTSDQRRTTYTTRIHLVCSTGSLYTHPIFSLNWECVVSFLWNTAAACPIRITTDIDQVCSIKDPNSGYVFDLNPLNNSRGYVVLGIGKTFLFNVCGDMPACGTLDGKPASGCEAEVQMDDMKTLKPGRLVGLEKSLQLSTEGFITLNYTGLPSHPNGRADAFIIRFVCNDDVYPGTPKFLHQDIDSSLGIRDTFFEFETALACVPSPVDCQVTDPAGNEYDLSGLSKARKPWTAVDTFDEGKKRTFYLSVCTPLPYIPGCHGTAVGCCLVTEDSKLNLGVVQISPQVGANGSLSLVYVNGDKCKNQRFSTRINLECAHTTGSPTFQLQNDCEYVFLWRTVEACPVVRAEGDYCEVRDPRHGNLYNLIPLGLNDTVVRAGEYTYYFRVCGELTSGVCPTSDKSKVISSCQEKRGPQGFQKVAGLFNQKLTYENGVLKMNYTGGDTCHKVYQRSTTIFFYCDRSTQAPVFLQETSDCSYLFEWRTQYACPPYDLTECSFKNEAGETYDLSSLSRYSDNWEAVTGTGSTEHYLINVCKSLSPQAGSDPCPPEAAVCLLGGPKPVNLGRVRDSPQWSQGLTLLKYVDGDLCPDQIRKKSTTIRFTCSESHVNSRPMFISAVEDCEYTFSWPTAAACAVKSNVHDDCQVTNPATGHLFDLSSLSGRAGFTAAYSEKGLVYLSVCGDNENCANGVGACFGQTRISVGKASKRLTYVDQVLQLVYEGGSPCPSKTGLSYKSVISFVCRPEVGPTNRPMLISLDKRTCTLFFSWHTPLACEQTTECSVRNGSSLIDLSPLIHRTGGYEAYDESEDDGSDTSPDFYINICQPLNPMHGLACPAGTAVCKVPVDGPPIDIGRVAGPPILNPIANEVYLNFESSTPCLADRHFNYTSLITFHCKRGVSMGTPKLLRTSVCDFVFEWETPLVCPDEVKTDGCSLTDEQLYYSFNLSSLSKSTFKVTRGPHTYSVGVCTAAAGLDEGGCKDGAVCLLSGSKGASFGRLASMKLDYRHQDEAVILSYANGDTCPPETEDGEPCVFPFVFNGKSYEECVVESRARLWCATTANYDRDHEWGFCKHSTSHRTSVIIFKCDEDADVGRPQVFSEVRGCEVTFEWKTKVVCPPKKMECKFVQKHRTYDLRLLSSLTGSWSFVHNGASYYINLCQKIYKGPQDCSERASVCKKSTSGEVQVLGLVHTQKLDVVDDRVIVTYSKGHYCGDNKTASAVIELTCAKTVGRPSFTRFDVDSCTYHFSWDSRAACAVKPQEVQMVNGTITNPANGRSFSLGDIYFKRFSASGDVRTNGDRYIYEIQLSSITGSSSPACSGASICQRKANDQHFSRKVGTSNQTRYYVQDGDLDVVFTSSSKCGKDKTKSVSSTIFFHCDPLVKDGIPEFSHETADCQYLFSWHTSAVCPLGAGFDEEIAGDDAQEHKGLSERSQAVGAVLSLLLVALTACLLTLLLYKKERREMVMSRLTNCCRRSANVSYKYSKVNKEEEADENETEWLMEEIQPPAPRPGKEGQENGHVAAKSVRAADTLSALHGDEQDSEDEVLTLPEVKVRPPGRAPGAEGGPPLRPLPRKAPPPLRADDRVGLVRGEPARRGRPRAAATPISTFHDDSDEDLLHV
“Flag-IGF2 F28A V43D double mutant (ligand)” gave a percent reduction of binding against WT IGF2 of 20 to 30%.

Turning to Flag-IGF2 F48D mutant (ligand), the percent reduction of binding against WT IGF2 is 20 to 30%.

As for Flag-IGF2 L53D mutant (ligand), the percent reduction of binding against WT IGF2 was above 60%.

For the origin of these results see paper PMC7015683.
